Experiments:
[1] = cytotoxicity of immunotoxins and blocking of LMIT-2 by LMIT-3 (FIG. 2B); type: cell-based
many cell lines [2] = conditions: published activity of PV; cited from earlier work
many cell lines [3] = assay: molar activity in vitro against many cell lines (FIG. 3B); type: cell-based; conditions: on average, PV from published activity
Procedure: FIG. 3: Activity of Duotoxins in vitro.
LMIT-2-DM1 was tested against various cell lines (FIG. 3A). […] Cells like DOHH-2 that are resistant to immunotoxins were sensitive to the LMIT-2-DM1. We have not found a cell line which is resistant to both, the PE and the DM1 in vitro. […] On average 3.6 DM1 molecules per LMIT-3 molecule were coupled. […] The activity of PV varies substantially over a 3-log concentration range. […] The activity is tested by plating the above described cell lines at 20,000 cells per well in a 96-well plate. The immunotoxin or duotoxin is added at indicated concentrations in a three-fold serial dilution, the cells incubated in a humidified incubator for 72 hours. The cells are then collected by centrifugation, stained with 7-AAD and Annexin V and cell death determined by flow cytometry. The concentration at which 50% of the cells are killed (IC50) reflects the activity of a drug against a cell and is determined from the flow cytometry data by non-linear regression analysis.

Row | Molecule | activity of LMIT-2 compared with Moxe [1] | variation of activity over concentration range (many cell lines [2]) | activity relative to LMIT-2 (less active) (many cell lines [3])
1 | Moxe: reference immunotoxin compared with LMIT-2 in FIG. 2B; not further defined in the text (antibody, chains of the INN, looked up, V domains shown, pasudotox (PE38 toxin fusion), not further defined in the text) VH: EVQLVESGGGLVKPGGSLKLSCAASGFAFSIYDMSWVRQTPEKCLEWVAYISSGGGTTYYPDTVKGRFTISRDNAKNTLYLQMSSLKSEDTAMYYCARHSGYGTHWGVLFAYWGQGTLVTVSA VL: DIQMTQTTSSLSASLGDRVTISCRASQDISNYLNWYQQKPDGTVKLLIYYTSILHSGVPSRFSGSGSGTDYSLTISNLEQEDFATYFCQQGNTLPWTFGCGTKLEI | comparable activity | – | –
2 | PV: CD22-targeting IgG-based ADC, antibody conjugated with MMAE (conjugate, chains of the INN, looked up, vedotin (MMAE) payload) VH: EVQLVESGGGLVQPGGSLRLSCAASGYEFSRSWMNWVRQAPGKGLEWVGRIYPGDGDTNYSGKFKGRFTISADTSKNTAYLQMNSLRAEDTAVYYCARDGSSWDWYFDVWGQGTLVTVSS VL: DIQMTQSPSSLSASVGDRVTITCRSSQSIVHSVGNTFLEWYQQKPGKAPKLLIYKVSNRFSGVPSRFSGSGSGTDFTLTISSLQPEDFATYYCFQGSQFPYTFGQGTKVEIK | – | 3 log | 3 logs

From US20200384118A1, “IMMUNOTOXIN CONJUGATES FOR USE IN THERAPY” (FRIEDRICH-ALEXANDER-UNIVERSITAT ERLANGEN-NURNBERG, priority 2017, published 2020)
